In test [1] the target is T1, CD137 on the surface of cells (activated human T cells; engineered CHO cells) (human, UniProt Q07011 24-255).
T1 construct: whole, on cells; also called human CD137; cell surface expressed CD137
Briefly: flow cytometry on activated pan T cells gated CD8+, anti-hFc APC MFI. The protocol: Three antibodies were selected for further study. For such evaluations, purified pan T-cells (see above) were stimulated with anti-CD3/CD28 beads (cells:beads=1:1) for 72 hours in the presence of IL-2 (100 U/mL). 100 μL of activated T cells (1.0×10⁶ cells/mL) and 100 μL of serially diluted (5- or 10-fold dilutions) test article (antibody or bispecific diabody) was added to each well of microtiter assay plate(s), mixed and incubated at RT for 45 min. The cells were washed with FACS Buffer and secondary antibody (anti-human-Fc region-APC) was then added to each well; mixed and incubated at RT for 30 min. Cells were then washed FACS Buffer and T cell surface marker antibodies (anti-CD4 labeled with V510, and anti-CD8 labeled with FITC) were then added to each well; mixed and incubated at RT for 30 min. Cells were washed and resuspended in 100 μL FACS Buffer and analyzed by flow cytometry (BD LSR Fortessa or FACSCanto 11) for cell event collection. Data analysis were performed via FloJo v10.
Chimeric antibodies having human IgG1 Fc regions and murine VH/VL domains were generated (designated: chCD137 MAB-1, chCD137 MAB-2, chCD137 MAB-3, chCD137 MAB-4 and chCD137 MAB-5, respectively), and were tested for their ability to bind to activated CD8⁺ T cells.
Background: Flow cytometry measures light scatter and fluorescence of single cells or particles in a stream.

In test [2] the target is T2, extracellular portion of human CD137 fused to a histidine-containing peptide (human, UniProt Q07011 24-186).
T2 construct: extracellular domain; also called huCD137; His-tagged soluble human CD137
Briefly: SPR (BIACORE); antibody captured on anti-human Fc; huCD137 25 and 100 nM; 1:1 Langmuir. As for the experimental part: Thus, an extracellular portion of human CD137 fused to a histidine-containing peptide (“huCD137”) was passed over a surface coated with immobilized antibody. Briefly, each test molecule was captured onto an F(ab)₂ goat-anti-human Fc-coated surface and then incubated in the presence of different concentrations (25 nM and 100 nM) of huCD137. The kinetics of binding were determined via BIACORE® analysis binding (normalized 1:1 Langmuir binding model).

Test [3] deals with T3, HER2/neu on the surface of target cells (N87, JIMT-1, MCF-7, MDA-MB231) (UniProt P04626 23-1255, limits assumed).
T3 construct: whole, on cells
Briefly: flow cytometry on N87 cells, anti-hFc APC MFI. As for the experimental part:
(§1) CD137×TA Binding Molecules, DART-B, DART-D, DART-G and the control molecules DART-3 and DART-6 were additionally evaluated for their ability to bind to HER2/neu expressed on N87 cells (FIG. 13A) and JIMT-1 cells (FIG. 13B). For such evaluation, 100 μL of HER2/neu expressing target cells (1.0×1⁰⁶ cells/mL) and 100 μL of serially diluted (5- or 10-fold dilutions) test article (bispecific diabody) were added to each well of microtiter assay plate(s), mixed and incubated at RT for 45 min. The cells were washed with FACS Buffer and secondary antibody (anti-human-Fc region-APC) was then added to each well; mixed and incubated at RT for 30 min. Cells were washed and resuspended in 100 μL FACS Buffer and analyzed by flow cytometry (BD LSR Fortessa or FACSCanto 11) for cell event collection. Data analysis were performed via FloJo v10.

Test [4] deals with T3, HER2/neu on the surface of target cells …. Briefly: flow cytometry on JIMT-1 cells, anti-hFc APC MFI. As for the experimental part:
as §1

Test [5] has the same target. Briefly: flow cytometry on N87 gastric cancer cells, anti-hFc APC MFI.
For test [6], the target named is T1, CD137 on the surface of cells …. Briefly: flow cytometry on activated pan T cells gated CD8, anti-hFc APC MFI.
Test [7] shares this target. Nature of the test: flow cytometry on activated CD8+ T cells (CD8 FITC), anti-hFc APC MFI.
The target is the same in test [8]. Nature of the test: flow cytometry on activated pan T cells gated CD8, anti-hFc APC MFI. The source holds these as a separate data set.
Test [9] shares this target. Nature of the test: flow cytometry on CD137-expressing CHO cells (CHO/137), anti-hFc APC MFI.
The target is the same in test [10]. Briefly: flow cytometry on activated CD8+ T cells (donor D53781, CD8 FITC), anti-hFc APC MFI.
The target is the same in test [11]. Nature of the test: flow cytometry on CD137-expressing CHO cells (CHO/137), anti-hFc APC MFI. This is another data set of the same source.

Positions count from the first letter of the chain named.

The term EC50 (read off the curve) denotes the concentration needed to bring the measured effect to its halfway point. Low values mean higher potency in that assay, high ones lower potency in that assay. A word on the Kd: it is the free concentration of one partner at which half of the binding sites on the other are occupied at equilibrium, for simple one-to-one binding. A higher Kd goes with a looser complex. As a reminder, the koff is a measure of how fast the partners let go of each other. The low end stands for slow dissociation, the high end for fast dissociation. As usually defined, the kon is a measure of how fast the partners come together. Low readings indicate slower complex formation, high ones faster complex formation.

T1 sequence (Q07011 24-255, change not shown): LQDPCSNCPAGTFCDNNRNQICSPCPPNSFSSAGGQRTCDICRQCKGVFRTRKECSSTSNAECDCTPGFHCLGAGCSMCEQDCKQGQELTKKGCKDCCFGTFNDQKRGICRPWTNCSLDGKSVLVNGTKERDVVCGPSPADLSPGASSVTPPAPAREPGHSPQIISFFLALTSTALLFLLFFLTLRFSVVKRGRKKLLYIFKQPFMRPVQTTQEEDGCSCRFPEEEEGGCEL

B1: CD137 MAB-1 (antibody, V domains shown)
VH: QVQLQQWGAGLLKPSETLSLTCAVYGGSFSGYYWSWIRQSPEKGLEWIGEINHGGYVTYNPSLESRVTISVDTSKNQFSLKLSSVTAADTAVYYCARDYGPGNYDWYFDLWGRGTLVTVSS
VL: EIVLTQSPATLSLSPGERATLSCRASQSVSSYLAWYQQKPGQAPRLLIYDASNRATGIPARFSGSGSGTDFTLTISSLEPEDFAVYYCQQRSNWPPALTFGGGTKVEIK
notes: also called urelumab; BMS-663513
For B1, the concentration giving a half-maximal response (EC50 (read off the curve)) in test [1] is approximately 0.005 µg/mL.

B2: chCD137 MAB-5 (antibody, V domains shown)
VH: QVQLKESGPGLVAPSQSLSITCTVSGFSLTSYDISWIRQPPGKGLEWLGVVWTGGGTNYNSAFMSRLSISKDNSKSQVFLKMNSLQTDDTAIYYCERVDYWGQGTSVTVSS
VL: DVVMTQTPLSLPVSLGDQASISCRSSQSLVHSNGNTYLHWYLQKPGQSPKLLIYKVSNRFSGVPDRFSGSGSGTDFTLKISRVEAEDLGVYFCSQSTHVPWTFGGGTKLEIK
With B2, the concentration giving a half-maximal response (EC50 (read off the curve)) in test [1] is approximately 0.1 µg/mL.

B3: chCD137 MAB-3 (antibody, V domains shown)
VH: QVQLQQPGAELVRPGASVKLSCKASGYTFTSYWINWVKQRPGQGLEWIGNIYPSDSYTNYNQKFKDKATLTVDKSSSTAYMQLSSPTSEDSAVYYCTRDYGSSYSFDYWGQGTTLTVSS
VL: DIQMTQTTSSLSASLGDRVTISCRPSQDISNYLNWYQQKPDGTVKLLIYYTSRLRSGVPSRFSGSGSGTDYSLTISNLEQEDIATYFCQQGDTLPYTFGGGTKLEIK
Regarding B3, in test [1], the “EC50 (read off the curve)” value was approximately 0.002 µg/mL. In test [2], this molecule showed a Kd of 23 nM, a koff of 0.02 s⁻¹ and a kon of 890000 M⁻¹ s⁻¹.

B4: chCD137 MAB-4 (antibody, V domains shown)
VH: QVQLQQPGAELVRPGASVKLSCKASGYTFTSYWINWVKQRPGQGLEWIGNIYPSDSYTNYDQKFKDKATLTVDKSSSTAYMQLSSPTSEDSAVYYCTKSGEYGKIGYYAMDYWGQGTSVTVSS
VL: B3 VL with P25A, R55H, D92N
Take B4: the concentration for a half-maximal effect (EC50 (read off the curve)) in [1] was approximately 0.02 µg/mL. In [2], this molecule displayed a Kd of 6.1 nM, a koff of 0.00092 s⁻¹ and a kon of 150000 M⁻¹ s⁻¹.

B5: DART-3 (bispecific antibody)
chain 1: not shown
chain 2: DIQMTQSPSTLSASVGDRVTITCRASQSVGYMHWYQQKPGKAPKLLIYDTSKLASGVPSRFSGSGSGTEFTLTISSLQPDDFATYYCFQGSGYPFTFGGGTKLEIKGGGSGGGGQVQLVQSGAEVKKPGASVKVSCKASGYTFTNYGMNWVRQAPGQGLEWMGWINTNIGEPTYTEEFKGRVTMTRDTSISTAYMELSRLRSDDTAVYYCARDDGYGNRVSYWGQGTLVTVSSGGCGGGKVAACKEKVAALKEKVAALKEKVAALKE
notes: also called HER2×RSV control molecule; HER2/neu×RSV control molecule
In the case of B5, the “EC50 (read off the curve)” value was approximately 0.05 µg/mL in test [3], approximately 0.03 µg/mL in test [4] and approximately 0.5 nM in test [5]. Also, the binding result in test [6] was “no binding”.

B6: DART-6 (bispecific antibody, human IgG1, kappa, L234A L235A)
heavy: QVTLRESGPALVKPTQTLTLTCTFSGFSLSTSGMSVGWIRQPPGKALEWLADIWWDDKKDYNPSLKSRLTISKDTSKNQVVLKVTNMDPADTATYYCARSMITNWYFDVWGAGTTVTVSSASTKGPSVFPLAPSSKSTSGGTAALGCLVKDYFPEPVTVSWNSGALTSGVHTFPAVLQSSGLYSLSSVVTVPSSSLGTQTYICNVNHKPSNTKVDKRVEPKSCDKTHTCPPCPAPEAAGGPSVFLFPPKPKDTLMISRTPEVTCVVVDVSHEDPEVKFNWYVDGVEVHNAKTKPREEQYNSTYRVVSVLTVLHQDWLNGKEYKCKVSNKALPAPIEKTISKAKGQPREPQVYTLPPSREEMTKNQVSLSCAVKGFYPSDIAVEWESNGQPENNYKTTPPVLDSDGSFFLVSKLTVDKSRWQQGNVFSCSVMHEALHNRYTQKSLSLSPGK
light: DIQMTQSPSTLSASVGDRVTITCRASQSVGYMHWYQQKPGKAPKLLIYDTSKLASGVPSRFSGSGSGTEFTLTISSLQPDDFATYYCFQGSGYPFTFGGGTKLEIKRTVAAPSVFIFPPSDEQLKSGTASVVCLLNNFYPREAKVQWKVDNALQSGNSQESVTEQDSKDSTYSLSSTLTLSKADYEKHKVYACEVTHQGLSSPVTKSFNRGEC
chain 1: QVTLRESGPALVKPTQTLTLTCTFSGFSLSTSGMSVGWIRQPPGKALEWLADIWWDDKKDYNPSLKSRLTISKDTSKNQVVLKVTNMDPADTATYYCARSMITNWYFDVWGAGTTVTVSSASTKGPSVFPLAPSSKSTSGGTAALGCLVKDYFPEPVTVSWNSGALTSGVHTFPAVLQSSGLYSLSSVVTVPSSSLGTQTYICNVNHKPSNTKVDKRVEPKSCDKTHTCPPCPAPEAAGGPSVFLFPPKPKDTLMISRTPEVTCVVVDVSHEDPEVKFNWYVDGVEVHNAKTKPREEQYNSTYRVVSVLTVLHQDWLNGKEYKCKVSNKALPAPIEKTISKAKGQPREPQVYTLPPSREEMTKNQVSLWCLVKGFYPSDIAVEWESNGQPENNYKTTPPVLDSDGSFFLYSKLTVDKSRWQQGNVFSCSVMHEALHNHYTQKSLSLSPGGGGSGGGSGGGDIQMTQTTSSLSASLGDRVTISCRPSQDISNYLNWYQQKPDGTVKLLIYYTSRLRSGVPSRFSGSGSGTDYSLTISNLEQEDIATYFCQQGDTLPYTFGGGTKLEIKGGGSGGGGQVQLQQPGAELVRPGASVKLSCKASGYTFTSYWINWVKQRPGQGLEWIGNIYPSDSYTNYNQKFKDKATLTVDKSSSTAYMQLSSPTSEDSAVYYCTRDYGSSYSFDYWGQGTTLTVSSGGCGGGEVAALEKEVAALEKEVAALEKEVAALEK
chain 2: DIQMTQTTSSLSASLGDRVTISCRPSQDISNYLNWYQQKPDGTVKLLIYYTSRLRSGVPSRFSGSGSGTDYSLTISNLEQEDIATYFCQQGDTLPYTFGGGTKLEIKGGGSGGGGQVQLQQPGAELVRPGASVKLSCKASGYTFTSYWINWVKQRPGQGLEWIGNIYPSDSYTNYNQKFKDKATLTVDKSSSTAYMQLSSPTSEDSAVYYCTRDYGSSYSFDYWGQGTTLTVSSGGCGGGKVAALKEKVAALKEKVAALKEKVAALKE
notes: also called RSV×CD137 control molecule; CD137×RSV control molecule
As for B6, the concentration giving a half-maximal response (EC50 (read off the curve)) is approximately 0.02 µg/mL in test [7]; approximately 0.1 nM in test [8]; approximately 0.02 µg/mL in [9]; approximately 0.2 nM in test [6]; approximately 0.02 µg/mL in test [10]; approximately 0.02 µg/mL in test [11]. Moreover, the binding result in [5] was “no binding”.
